The values below come from publication PMC6726503.

Where two headings read alike, the source gives them in different places.

Assay [1] has as its target human TGF-β2 (human). The experiment in a line: SPR. On the technique in general: Surface plasmon resonance follows binding to a sensor surface in real time, without labels.
The target in assay [2] is TGF-β2DM:TβRII binary complex (human) (UniProt P37173). The experiment in a line: SEC-MALS. On the technique in general: In gel filtration, larger molecules generally elute earlier.
Assay [3] concerns the target human TGF-β2 (human). Description: SPR. The source holds these as a separate data set.
A further assay has as its target TβRII ECD (Homo sapiens) (UniProt P37173). The note with it: cited from earlier work.

Chain of TβRII ECD (Homo sapiens) (P37173 23-166): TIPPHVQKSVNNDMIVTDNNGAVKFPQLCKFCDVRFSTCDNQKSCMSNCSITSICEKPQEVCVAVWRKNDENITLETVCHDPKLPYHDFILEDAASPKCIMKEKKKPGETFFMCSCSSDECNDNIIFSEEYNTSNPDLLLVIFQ

One may read the Kd as the free concentration of one partner at which half of the binding sites on the other are occupied at equilibrium, for simple one-to-one binding. As usually defined, the koff is the rate constant with which the complex falls apart. Read a high koff as fast dissociation. By kon is commonly meant a measure of how fast the partners come together. A low value points to slow association. For the substance “full-length zebrafish betaglycan ectodomain (domain or fragment)”, in the assay with human TGF-β2 (human) [1], the Kd is 0.00495 µM, the koff is 0.00173 s⁻¹ and the kon amounted to 350000 M⁻¹ s⁻¹. The substance further gave a stoichiometry N (BG (O-ZP) per TGF-β2DM dimer) in assay [2] of 1.

In the assay with human TGF-β2 (human) [1], “zebrafish betaglycan ZP-C domain (domain or fragment)” registered a KD1 (heterogeneous-ligand fit, ligand class 1) of 1100 nM; a KD2 (heterogeneous-ligand fit, ligand class 2) of 480 nM; a ka1 (heterogeneous-ligand fit, ligand class 1) of 480000 M⁻¹ s⁻¹; a kd1 (heterogeneous-ligand fit, ligand class 1) of 0.51 s⁻¹. The kd2 (heterogeneous-ligand fit, ligand class 2) in the assay with human TGF-β2 (human) [1] was 9300 s⁻¹.

In the assay with human TGF-β2 (human) [1], “zebrafish betaglycan orphan domain (domain or fragment)” came in with a Kd of 0.027 µM, a koff of 0.0288 s⁻¹ and a kon of 1.07e+06 M⁻¹ s⁻¹. Besides, in the assay with human TGF-β2 (human) [3], the Kd is 0.015 µM, the koff was 0.00772 s⁻¹ and the kon is 528000 M⁻¹ s⁻¹. In assay [2], this substance registered a stoichiometry N (BGO per TGF-β2DM dimer) of 1.

For TGF-β2 (from UniProt P61812), the Kd in the assay with TβRII ECD (Homo sapiens) is 20 µM.
